Experimental data as given in patent publication US20160002317A1.

Target: mAG (monomeric Azami-Green) with C-terminal E. coli BirA biotinylation motif and 6xHis tag
Test: capture of lambda phage on MACS streptavidin beads prebound with biotinylated mAG1; background control

## phage uninduced (control) for α-mAG1 Fab::calmodulin expression
  column output (phage (of 5.5×107 added)): 20000
